The source of these data is PMC9351184, “Survey of the binding preferences of RNA-binding proteins to RNA editing events”.

The target of one data set is T1, ILF3 dsRBD (Homo sapiens, UniProt Q12906 398-590).
T1 sequence: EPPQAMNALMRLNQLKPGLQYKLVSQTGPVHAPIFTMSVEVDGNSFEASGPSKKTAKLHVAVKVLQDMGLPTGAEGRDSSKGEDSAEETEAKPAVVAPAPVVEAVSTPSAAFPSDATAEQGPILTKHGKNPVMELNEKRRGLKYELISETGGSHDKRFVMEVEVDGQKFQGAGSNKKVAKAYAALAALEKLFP
As to the kind of experiment: EMSA; 1 uM labelled RNA, 3 uM protein, 10 ul, on ice 45 min; 6% PAGE in 0.5x TBE (gel pre-run at 4 C); binding buffer, salt and pH not stated (proteins dialyzed in 25 mM Tris-HCl pH 8.0, 150 mM NaCl; final elution from cation exchange/heparin up to 1 M NaCl, then SEC). As to conditions: protein: recombinant; tags: N-terminal GST (pGood6p), removed with TEV; label: 5' DY781. A general note: A gel shift assay detects complexes by their altered migration in electrophoresis.

Another data set concerns the target hnRNPC dsRBD (Homo sapiens, UniProt P07910 16-57). The data set is described as above. As to conditions: protein: recombinant; tags: 10xHis (pSUMOH10), removed with TEV; label: 5' DY781.

Sequence of hnRNPC dsRBD (P07910 16-57): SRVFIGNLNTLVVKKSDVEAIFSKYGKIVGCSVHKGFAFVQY

B1: edited RNA (ssRNA)
RNA: AGUGGCUUAUGCCUGUGAUCCCAACAC
modifications: A-to-I editing site represented by G as printed (A/G); inosine not stated
In the case of B1, the binding result with ILF3 dsRBD and with hnRNPC dsRBD was “binds” each time.
